Measured values from a protein production outcome set (Wang et al. 2014).

experiment: label from the status in PepcDB records
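Also: failed if final PepcDB status was selected cloned or expressed and not failed if soluble or beyond.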

Question: With “MNQMQGRLVAGRYRLGEAIGSGGMGRVWRAHDEVLHRTVAIKELTAALYVSESDQAILLARTRGEARAAARINHSAVVTVHDVLEHDGRPWIVMELVEGRSLADAVKEEERVDPREAARVGLWVLRALRAAHTAGVLHRDVKPGNVLLADDGRVLLTDFGIAQIEGDSTITRTGEVVGSVDYLAPERVRGHDPGPSSDLWALGATLYTAVEGRSPFRRTSPLTTMQAVVEEEATEPRYAGALAPVISALLRKDPAERPDATEAEHLLAQAAEGRRPDAAQAYVPTTRYEGPPRAGDTAVQGMPAGGSGATPYPQAGGSGATPYPPTTGPTGAGPAPTGHTRGGYTQVGHTEGGYTAPGYAPAPAVGGAAPGRARRVRMRTLALVVAVAALIGAGTAVVLHQRDEGGSSAGADPTQGPTGSAAPSPSPSASATTGKGPGGSVPADWTRRDDPLGFSLYLPENWQRRDFDGDSGELRQIDYTPDGGNHVLRISVDTAPDYNDPYAHQQDLDAQLLQRLVDYRRVKLERAGYRDRDSARWEYTWTALAKDTEFPGPRRAVSQMYMSRDGVEYALNMTGPAGDWPTTQRRFKAVLQGWQEETG” as the sequence, how does the protein production read?
Answer: Its protein production is “failed”.

Question: Which protein production does the source give for “MNQQEVAADYLKYFDDMLAKAADLTKDIKDADKKTVVYGNVSKFSQPHVIAEWWIDKAGGISVTSEAMTKANKESLTYTLEDLLKWNPDVMFVASAAEKKEVLADARLGEITAVKNGAIYIVPRIAHVWGNRTTEQPLTIMWAMNKLYPEIVTLEHHHHHH” here?
Answer: The protein production was “not failed”.

Question: For “MNQVEMTEFPVGKPQEALYGVASTPDGALWFTLAKGNAIGRLSPDGAVSRFPLPHTDGQPTTITCGPDGRPWFTLSSANAIGRLAPDGALRMFELPRPASRPFGIAGGHDGCLWFAEMAGDRIGRITIDGDIEEYDLPVKGGYPSCMAAGRDGLMWFTLNQAGAVGSISATAAPRIFPLGAADAAPVGIASDAQGALWIAQAGNGAIVRFDAGGRITEFPLHSRAARPHAIAADAAGNLWFTEWGANRIGRISEAGDLAGYELAAPGSEPHGIAIDPHGCVWAALETGRLVRLQASPRDLEHHHHHH”, which protein production is on record?
Answer: Its protein production is “not failed”.

Question: Which protein production does the source give for “MNQVHHAAQQGFSQAAELYQHARPNYPQAVVEWLKQDLRLNKYSKVVDLGAGTGKFLPYLKQVTTDIVAVEPVHEMLQQLQTAHPDIKVLQAQSTNIPLESESIDAVLCAQSFHWFANIESLNEIYQLLKPSGHLGLIWNQRDENIDWVKQIADMLMTFEGDTPRYHSGEWKKAFEHQHLFKLEHARVFSHVHTGTVEQVVSQRLLSTSFIAAMPEAQQQQLKQQFEHIVFECTGKQPTDQIDFPYITYAYDFKKI” here?
Answer: Its protein production is “failed”.

Question: With “MNQVVEFLKIFIPLFIVIDPFGSLVLFTSMTYNFNESEKLRATKDAVFYGGIILVLFALAGEYIIYFFGISIEALEMAGGIILLLMAVEMIMEGNRPKSSGSEIVDYDIGIVPFATPMLAGPGAISLVIILMKGPIIAKIYTIISIAIIFAMVYIFFKWSSVVSKFIGAKVMKAISRIFGLLLAGFAIQYFIDAIVALSLLK” as the sequence, how does the protein production read?
Answer: Its protein production is “failed”.

Question: With “MNREELFDVTVIGGGPAGLYSAFYSGLREMKTKIIEFQPQLGGKIHVYPEKMIWDIGGLLPVTGEKLIEQLVQQGLTFQPEVVLNTKIESIIRNKDGIFTLKTSTGEEHFSKTVIVATGSGILNPQKLSIEGAERFEVSNLNYTVKSLKRFKNKTVIISGGGNSAIDWANELEPIAKKVYLTYRKEELSGHEAQVKQLMNSSAECFFNTSITTLIAGDNHEAIEYVELTNHETGEVSQLAIDEVIINHGYERDITLLENSELDVAIIDNYYIAGNANSESSVDGLYAAGDILKHEGKLHLIAGAFQDAGNAVNKAKQFIQPDASEYGMVSSHNEVFKKRNRELIKQMMK” as the sequence, how does the protein production read?
Answer: Its protein production is “failed”.

Question: With “MNREKLMKMANTVRTGGKGTVRRKKKAVHKTNTTDDKRLQSTLKRIGVNSIPAIEEVNIFKDDVVIQFINPKVQASIAANTWVVSGSPQTKKLQDILPQIISQLGPDNMDNLKKLAEQFQKQASGEGNAASATIQEEDDDDVPELVGETFETAAEEKAPAAAASS” as the sequence, how does the protein production read?
Answer: The protein production was “failed”.

Question: Which protein production does the source give for “MNRFIGYIQVACCCLLLCASCVRDGMDEDCNSYVRFVYDYNLEYIDLFHKQATKMNLYVFDEKGVFVTELKEESGAFAPDYLMTLPGAMAGRRYIFVAWSGLYGESYDKVTLTPGVSTLEDLEVSVNNLKTRIGGGVVDRELHLLWHGKQTEVSPQYNNDITTVSLLKNTKKFRIIMQMLDDSSIHVDDYDFRIISPNGRYNHENGLLGDETDEKVEYTAYHTEDDPETGAIAELNTLRLMTDTENRLVITHKSSGNVILDIPLNKYLNALRLQQYADIPLQEYLDRADKHGIILFFKGMDGNGNYISVDVQINGWLIRKQEVDGV” here?
Answer: The protein production was “failed”.

Question: For “MNRMMALVMAGGRGTRLAIDCEKPLLEVAGRPMIDHVLEALESATGVDGIIVVTSPHTPMTEDHVRGRHPIFRASGGGYVEDLREVLSHLEESYHEPLLVINSDLPLVRPSTIDWIISSYHSCPEPAMCVAVPDDLCRRHGLDFSGSLDGLVPCGVNILMSKNRVQEQRILEASMLELAVNINSCRDLKVLEKILGEIDGREEAHKRGREVLELEHHHHHH”, which protein production is on record?
Answer: Its protein production is “not failed”.

Question: For “MNRNKIAALIFAVSTVCVVSAHSENAYATEHKNSNQLEENNQTRSVKKGQVINVSTNLRIRKSPNTSSDVIGYLTNGEIFNIDGKEGSWYKINANGKVGYIHGDYVKEVTGNSNSSSNNSGSNSNLDTSLAGKKGTVVNVSTSLRVRQSPSTSSSVVGSLRGGQTFEIKGKSGSWYYINANGLTGYIHGDYVQVGENSSNNGGQSSGNNGQSSENNSGMDTSLAGKTGKVVNVSTSLRIRQSPSTSSSVVGSLSAGQTFKINGKNGAWYNIDAQGTKGHVHGDYVQVLSGNESSNSGSNNNQSGSQNNNLDESYNGKAGKVVNVTTNLRLRSQPSTSSSVLAYLLPNERFTLQGKTSSGWFKVNYNGKIGYLHEDYVKIVSSDEGANGNTGGSTGGGQVNQSKYEQVLSIMKSQIGSPYIYGGAGETLTSSLLSSLRRTFPDHAARGFYDIPSNYLNGNYRAFDCSGLMQWSFRQAGISLGRTTWDQINNGYEVSPSNAKPGDLLFFSNLGHVGMYIGNGQWIEAPNKGKFVSITSVPWSKIGRARRVL”, which protein production is on record?
Answer: Its protein production is “failed”.

Question: For “MNRNLLYMILRLIFVIVATVAGFYVLLYMSGLIYPFIIAFAFAYLINPVVNFLNQKLQFPRALAVLVSLILVFGAIVGLVTYLVTEAISATTYLLQLVTVKFPDIVTFAQQFALNHIMPLYDDLISKFNHLGEPQRYTITQNIQNLGTEATTQMKELLTAIISGLTNFISALPTTLTVLVFILLATFFISYDWHRLAQKARKLLPNRVHGYGKTIFVDLRKALFGFVKAQLTLVSMTTVIVLIGLLILRVPYAITIAIITGVVDLLPYLGTGAVFVPWVIYVFFTGDTAFAIGLLILYIVVIVQRQIMEPKVLSSNIGLDPLATLVALFVGFKLFGFLGLIIGPVTLVLLNTLHKANVFHDLWKYIKGSPSK”, which protein production is on record?
Answer: Its protein production is “failed”.

Question: For “MNRNRQLSDPSRFSGMAAGFFMATLGAVLFSGKAIVVKFTYRYGIDAVTLIAFRMLFAMPFFAAVAWWQARRAARGELPVLSWRERGQLCALGLLGYYLSSFLDFLGLRHITAGLERLILFLSPSLVVLLSAWWLKRPVTRRQWGAMLLSYVGVALVLSHDLSQSGAGADVLTGSFFVFCSALSYSVYLICSGELVERVGATRLVAYAMLVSCVASLIQFFLIHPASVLVQPAAVYGYSVIHATVNTVLPVFMLMWAVALVGAPTASLLGMVGPVSVLFLAAWFLDEPITVWQLAGTALVLAGVFVLAGRRRPARP”, which protein production is on record?
Answer: The protein production was “failed”.

Question: Which protein production does the source give for “MNRREVRCAFSASKAARAQLLLRGKVRLEPLPTRPRTVLGLDASYSAKDGVGVGAAVLISLETLEPVDCRVYISRVCIPYIPGLLAFRELAVMAPAAAALSAEADVVMVDGHGIAHPRRFGIASHVGVILERPSIGVAKKKLVGTLVEGPGGMYVVQDGERLAIVLGTRPREVYVSPGHRITLEEAASIARATIRPGGWMPEPTRLADVISKALKTIIGGQSLINSALASLCRVKLGPRLEELERPLRRAGLEVELEHHHHHH” here?
Answer: The protein production was “failed”.

Question: With “MNRVIACIDSSPCINAIAEAAAWVARQTKRELVLLQILDYYPASYHLGEISGVIGFESNAMLLKELAELEQKQSDLAIDYSNNLLKHISDMILEKYGIQSTKIQEKGDFLEQSFNVLRETDFVIIGKVGERAAEKNKPIGSNVENFIRGANCTVMTVGEHFKIPTRFIFAYEYSPTCLNLMQRIAQSDLLKTLQCHLLYVGDHPEVLKDPEEFLKNAGLDVITVYRYGDVAENILEYQKELGIQMIVLGAFSHSKIHQFFLGSIATSIFRNATVPLLVAK” as the sequence, how does the protein production read?
Answer: Its protein production is “failed”.

Question: For “MNSAVGAELFMGDDGVSLRPGLGGTESVLESWRYIMGKLRVGRFLISSRVNGPGRRFVIWFQGCPIRCRGCLNPEFHDEDGGHLIETARLVDMIRDLRDEIEGVTFTGGEPLAQAMELVKLAGAVKSMGLTVVCFTGYEMDEILKGNIEGGLELLEFVDVLIDGPYIEEKSAPLLWRGSTNQDVYFLTERYAEFRDRVMACSEMEAELKVGADGVYMTGIFDVEFWEELRRRLGDGSLEHHHHHH”, which protein production is on record?
Answer: The protein production was “failed”.

Question: Which protein production does the source give for “MNSFLIIIFRLYLPISVAILTGVLLSFSLEKLQGNFSKNKHLSLVVPNYLGKFLFWFGVPLGVINFVHKANLSGGIWLSPIVAWGAVVLGIFLSWLWVQTLFPKPSLAFQTSFTLVSTVGNTSYIGFPIILLLPQLGPDYFGWAILYDLLGTFLAAYGLGSILASRSLLTNPNKIISFGLDSPVFPINQKTITDHIKSSILKIFQWLKNNLVILVKNPTLIAFIIGLILRPIVFPPWLDISLGWFAWSIIMLSLILMGMRLQQLDSWGNIKIAFSAVSIKMLLVPLVIAMALTTAGLSGPPRLVLVLQSSMPSAFASLILAEAYDLDRDLVVTCLGLSSLMLFFTLPFWLWGFTTW” here?
Answer: The protein production was “failed”.

Question: For “MNSILPSVSTLAVGARPARPNVSVVMVVYRTGEALVESIRHVLAEPLVDEFIIVDNGSSSRDEDMLRSLALTEPRVVLKQGHGNVGFARGANLGAVTAGGEYIVFLNPDANLQPSCVASLVTAFKGQPVPTIVGARVLNTDGSEQRGGRRGDVTPISTVLSFGQLTRRYPKLAGFEIHRENEPLPGAPVPMPTISGACFAMRRADFVALNGFDEGYFLHVEDIDLCWRARRAGGQVLFQPNAEVVHLGHTSLEHPVKVEFHKGVGLTRYFIKRADSLQLFAAAVLLAPAIMLMSVCRPLLWKLTGRPI”, which protein production is on record?
Answer: Its protein production is “failed”.

Question: Which protein production does the source give for “MNSKAMQALIFLGFLATSCLAQAPAPAPTTVTPPPTALPPVTAETPSPIASPPVPVNEPTPAPTTSPTTSPVASPPQTDAPAPGPSAGLTPTSSPAPGPDGAADAPSAAWANKAFLVGTAVAGALYAVVLA” here?
Answer: Its protein production is “failed”.

Question: For “MNSKTHLLLALTMLIWAGSFIFIKIGLKELDPFNLAFYRFLLASPLLMAWVFWKRGLAKPSGSEWLHLSVLALSGVTLLYAFQFLALKYTTATNASILINTSAVFVALWGLVKGEANPRKLAGVFLSFAGVVLIVSKGTLEFFSSKTIFGDVLMIVDGFLWAVYTVLGSKMLLKYDHETLTAYAFALGTIFLIPFALMSGFANPVTFNPETVAALLYLSILCSVFAYVVWYYALTNADSTSVAVYVYLVPLFTAIFAFYALNEKPDFFTAIGGIITIAGVYLTTAKQHQ”, which protein production is on record?
Answer: Its protein production is “failed”.

Question: For “MNSLDKLKTFIIILIIFSIGFFSRIETAELKGMNTADRAYFTDENGLPYMYEPDSYYNYRLTANILDHGHPGDKIINGTPWDLHSNYPPGNRVNYPPLILWISLLFHNFINLFIPFSLIETCFWLPAIIGPLAGIVMFFMVRRYAGDLPGLLSGVLLVLAPVYFSRTVPGFFDTDMFNIIFPLLVIFFLLKATETKNNYMFPLLLSSFSLALLSLSWNGWAYIFYIIIISSILYMTLCKLKGKAVMGFSRKIAVFVIISLLIIGLAGRLGYALIFPTFFKFTFKSLSAGGWPGIFESISELSAPTFDEFLSLPGPVNMGIGLFGFVIIGSIMLRDEIKRVHLPDFSWYPFILIGIWLIIGLAAYSLSTRFALLVIPPLIIFLGLLMGVMASYLKGSPSMRLRRSGNVFILSLVVMLSTISFIQAYEIQFVPIVDDDFVAASYWIKNETSMDTVVITEWGYGHPLATFSQRPVLMDGGMNPSTPRSYWVYHAFATNNESLSIGIFSMLSTSGNKAVELLNNRTGNTSLTVTILDDILGVNRIYAEKTLQEKYGIDPGFTGELLSYTHPTNKPFIILTKDDMIKWGHWYIYYGFWDFNRSRGYDYIYYVGSSNDTGQIRYYSNDVKFDLTSGASWENRKPYTTIIKYRNFKRVIEGDGKSDFSIIVLLDKNQAIVVDKRFQDSLFVKLVILKEETEHIKPIYKNNSTIIWTVR”, which protein production is on record?
Answer: Its protein production is “failed”.
